From US20100048868A1
pKd: −log10 of the molar value.

Target: recombinant human HER2 extracellular domain (human) (UniProt P04626)
Test: SPR (Biacore 2000), HER2-ECD immobilised, 1:1 model, 25 C

With His6-(ZHER2 A)2 (designed binder) the pKd was 8.52 and the koff was 0.00076 s⁻¹.
